From patent publication US20260176319A1 (KALLYOPE, published 2026)
Starred links: 1 amine or outer side, 2 acyl side, 3 side chain; linkers in the order of their positions; H or OH if unused. Non-standard residues stand in square brackets, D forms with d. *: point of attachment. Trp(7-F) = N[C@@H](Cc1c[nH]c2c(F)cccc12)C(=O)O; Trp(7-Me) = Cc1cccc2c(C[C@H](N)C(=O)O)c[nH]c12; d(γGlu) = O=C(O)[C@@H](CCC(=O)[*:2])N[*:1]; C18 diacid = O=C(O)CCCCCCCCCCCCCCCCC(=O)*; γGlu = O=C(O)[C@H](CCC(=O)[*:2])N[*:1]; 2Nal = N[C@@H](Cc1ccc2ccccc2c1)C(=O)O; Palmitoyl = CCCCCCCCCCCCCCCC(=O)*; Nle = CCCC[C@H](N)C(=O)O; AEEA = NCCOCCOCC(=O)O; Sar = CNCC(=O)O

B1: Peptide 98 (peptide)
peptide: {C18 diacid}-[γGlu][AEEA][AEEA][AEEA][AEEA]GNHWAV[dA]HL[Nle]-NH2
SMILES: CCCC[C@H](NC(=O)[C@H](CC(C)C)NC(=O)[C@H](Cc1c[nH]cn1)NC(=O)[C@@H](C)NC(=O)[C@@H](NC(=O)[C@H](C)NC(=O)[C@H](Cc1c[nH]c2ccccc12)NC(=O)[C@H](Cc1c[nH]cn1)NC(=O)[C@H](CC(N)=O)NC(=O)CNC(=O)COCCOCCNC(=O)COCCOCCNC(=O)COCCOCCNC(=O)COCCOCCNC(=O)CC[C@H](NC(=O)CCCCCCCCCCCCCCCCC(=O)O)C(=O)O)C(C)C)C(N)=O
B2: Peptide 112 (peptide)
peptide: Palmitoyl-[γGlu][AEEA][AEEA]GNH[Trp(7-Me)]AV[dA]HL[Nle][Sar]-NH2
SMILES: CCCCCCCCCCCCCCCC(=O)N[C@@H](CCC(=O)NCCOCCOCC(=O)NCCOCCOCC(=O)NCC(=O)N[C@@H](CC(N)=O)C(=O)N[C@@H](Cc1c[nH]cn1)C(=O)N[C@@H](Cc1c[nH]c2c(C)cccc12)C(=O)N[C@@H](C)C(=O)N[C@H](C(=O)N[C@H](C)C(=O)N[C@@H](Cc1c[nH]cn1)C(=O)N[C@@H](CC(C)C)C(=O)N[C@@H](CCCC)C(=O)N(C)CC(N)=O)C(C)C)C(=O)O
B3: Peptide 102 (peptide)
peptide: {C18 diacid}-[γGlu][AEEA][AEEA]GNH[Trp(7-F)]AV[dA]HL[Nle][Sar]-NH2
SMILES: CCCC[C@H](NC(=O)[C@H](CC(C)C)NC(=O)[C@H](Cc1c[nH]cn1)NC(=O)[C@@H](C)NC(=O)[C@@H](NC(=O)[C@H](C)NC(=O)[C@H](Cc1c[nH]c2c(F)cccc12)NC(=O)[C@H](Cc1c[nH]cn1)NC(=O)[C@H](CC(N)=O)NC(=O)CNC(=O)COCCOCCNC(=O)COCCOCCNC(=O)CC[C@H](NC(=O)CCCCCCCCCCCCCCCCC(=O)O)C(=O)O)C(C)C)C(=O)N(C)CC(N)=O
B4: Peptide 105 (peptide)
peptide: {C18 diacid}-[γGlu][AEEA][AEEA]GNH[2Nal]AV[dA]HL[Nle]-NH2
SMILES: CCCC[C@H](NC(=O)[C@H](CC(C)C)NC(=O)[C@H](Cc1c[nH]cn1)NC(=O)[C@@H](C)NC(=O)[C@@H](NC(=O)[C@H](C)NC(=O)[C@H](Cc1ccc2ccccc2c1)NC(=O)[C@H](Cc1c[nH]cn1)NC(=O)[C@H](CC(N)=O)NC(=O)CNC(=O)COCCOCCNC(=O)COCCOCCNC(=O)CC[C@H](NC(=O)CCCCCCCCCCCCCCCCC(=O)O)C(=O)O)C(C)C)C(N)=O
B5: Peptide 107 (peptide)
peptide: {C18 diacid}-[γGlu][AEEA][AEEA]GNHHAV[dA]HL[Nle]-NH2
SMILES: CCCC[C@H](NC(=O)[C@H](CC(C)C)NC(=O)[C@H](Cc1c[nH]cn1)NC(=O)[C@@H](C)NC(=O)[C@@H](NC(=O)[C@H](C)NC(=O)[C@H](Cc1c[nH]cn1)NC(=O)[C@H](Cc1c[nH]cn1)NC(=O)[C@H](CC(N)=O)NC(=O)CNC(=O)COCCOCCNC(=O)COCCOCCNC(=O)CC[C@H](NC(=O)CCCCCCCCCCCCCCCCC(=O)O)C(=O)O)C(C)C)C(N)=O
B6: Peptide 99 (peptide)
peptide: {C18 diacid}-[γGlu][AEEA][AEEA]GNH[2Nal]AV[dA]HL[Nle][Sar]-NH2
SMILES: CCCC[C@H](NC(=O)[C@H](CC(C)C)NC(=O)[C@H](Cc1c[nH]cn1)NC(=O)[C@@H](C)NC(=O)[C@@H](NC(=O)[C@H](C)NC(=O)[C@H](Cc1ccc2ccccc2c1)NC(=O)[C@H](Cc1c[nH]cn1)NC(=O)[C@H](CC(N)=O)NC(=O)CNC(=O)COCCOCCNC(=O)COCCOCCNC(=O)CC[C@H](NC(=O)CCCCCCCCCCCCCCCCC(=O)O)C(=O)O)C(C)C)C(=O)N(C)CC(N)=O
B7: Peptide 101 (peptide)
peptide: {C18 diacid}-[γGlu][AEEA][AEEA][AEEA][AEEA]GNH[Trp(7-F)]AV[dA]HL[Nle][Sar]-NH2
SMILES: CCCC[C@H](NC(=O)[C@H](CC(C)C)NC(=O)[C@H](Cc1c[nH]cn1)NC(=O)[C@@H](C)NC(=O)[C@@H](NC(=O)[C@H](C)NC(=O)[C@H](Cc1c[nH]c2c(F)cccc12)NC(=O)[C@H](Cc1c[nH]cn1)NC(=O)[C@H](CC(N)=O)NC(=O)CNC(=O)COCCOCCNC(=O)COCCOCCNC(=O)COCCOCCNC(=O)COCCOCCNC(=O)CC[C@H](NC(=O)CCCCCCCCCCCCCCCCC(=O)O)C(=O)O)C(C)C)C(=O)N(C)CC(N)=O
B8: Peptide 104 (peptide)
peptide: {C18 diacid}-[γGlu][AEEA][AEEA]GNH[Trp(7-Me)]AV[dA]HL[Nle][Sar]-NH2
SMILES: CCCC[C@H](NC(=O)[C@H](CC(C)C)NC(=O)[C@H](Cc1c[nH]cn1)NC(=O)[C@@H](C)NC(=O)[C@@H](NC(=O)[C@H](C)NC(=O)[C@H](Cc1c[nH]c2c(C)cccc12)NC(=O)[C@H](Cc1c[nH]cn1)NC(=O)[C@H](CC(N)=O)NC(=O)CNC(=O)COCCOCCNC(=O)COCCOCCNC(=O)CC[C@H](NC(=O)CCCCCCCCCCCCCCCCC(=O)O)C(=O)O)C(C)C)C(=O)N(C)CC(N)=O
B9: Peptide 110 (peptide)
peptide: {C18 diacid}-[γGlu][AEEA][AEEA][AEEA][AEEA]GNH[Trp(7-F)]AV[dA]HL[Nle]-NH2
SMILES: CCCC[C@H](NC(=O)[C@H](CC(C)C)NC(=O)[C@H](Cc1c[nH]cn1)NC(=O)[C@@H](C)NC(=O)[C@@H](NC(=O)[C@H](C)NC(=O)[C@H](Cc1c[nH]c2c(F)cccc12)NC(=O)[C@H](Cc1c[nH]cn1)NC(=O)[C@H](CC(N)=O)NC(=O)CNC(=O)COCCOCCNC(=O)COCCOCCNC(=O)COCCOCCNC(=O)COCCOCCNC(=O)CC[C@H](NC(=O)CCCCCCCCCCCCCCCCC(=O)O)C(=O)O)C(C)C)C(N)=O
B10: Peptide 109 (peptide)
peptide: {C18 diacid}-[γGlu][AEEA][AEEA][AEEA][AEEA]GRH[Trp(7-F)]AV[dA]HL[Nle]-NH2
SMILES: CCCC[C@H](NC(=O)[C@H](CC(C)C)NC(=O)[C@H](Cc1c[nH]cn1)NC(=O)[C@@H](C)NC(=O)[C@@H](NC(=O)[C@H](C)NC(=O)[C@H](Cc1c[nH]c2c(F)cccc12)NC(=O)[C@H](Cc1c[nH]cn1)NC(=O)[C@H](CCCNC(=N)N)NC(=O)CNC(=O)COCCOCCNC(=O)COCCOCCNC(=O)COCCOCCNC(=O)COCCOCCNC(=O)CC[C@H](NC(=O)CCCCCCCCCCCCCCCCC(=O)O)C(=O)O)C(C)C)C(N)=O
B11: Peptide 100 (peptide)
peptide: {C18 diacid}-[γGlu][AEEA][AEEA]RNHWAV[dA]HL[Nle][Sar]-NH2
SMILES: CCCC[C@H](NC(=O)[C@H](CC(C)C)NC(=O)[C@H](Cc1c[nH]cn1)NC(=O)[C@@H](C)NC(=O)[C@@H](NC(=O)[C@H](C)NC(=O)[C@H](Cc1c[nH]c2ccccc12)NC(=O)[C@H](Cc1c[nH]cn1)NC(=O)[C@H](CC(N)=O)NC(=O)[C@H](CCCNC(=N)N)NC(=O)COCCOCCNC(=O)COCCOCCNC(=O)CC[C@H](NC(=O)CCCCCCCCCCCCCCCCC(=O)O)C(=O)O)C(C)C)C(=O)N(C)CC(N)=O
B12: Peptide 106 (peptide)
peptide: {C18 diacid}-[γGlu][AEEA][AEEA]GNHW[dA]V[dA]HL[Nle]-NH2
SMILES: CCCC[C@H](NC(=O)[C@H](CC(C)C)NC(=O)[C@H](Cc1c[nH]cn1)NC(=O)[C@@H](C)NC(=O)[C@@H](NC(=O)[C@@H](C)NC(=O)[C@H](Cc1c[nH]c2ccccc12)NC(=O)[C@H](Cc1c[nH]cn1)NC(=O)[C@H](CC(N)=O)NC(=O)CNC(=O)COCCOCCNC(=O)COCCOCCNC(=O)CC[C@H](NC(=O)CCCCCCCCCCCCCCCCC(=O)O)C(=O)O)C(C)C)C(N)=O
B13: Peptide 7 (peptide)
peptide: Palmitoyl-[d(γGlu)][AEEA][AEEA]GNHWAV[dA]HL[Nle]-NH2
SMILES: CCCCCCCCCCCCCCCC(=O)N[C@H](CCC(=O)NCCOCCOCC(=O)NCCOCCOCC(=O)NCC(=O)N[C@@H](CC(N)=O)C(=O)N[C@@H](Cc1c[nH]cn1)C(=O)N[C@@H](Cc1c[nH]c2ccccc12)C(=O)N[C@@H](C)C(=O)N[C@H](C(=O)N[C@H](C)C(=O)N[C@@H](Cc1c[nH]cn1)C(=O)N[C@@H](CC(C)C)C(=O)N[C@@H](CCCC)C(N)=O)C(C)C)C(=O)O
B14: Peptide 103 (peptide)
peptide: {C18 diacid}-[γGlu][AEEA][AEEA][AEEA][AEEA]GNH[Trp(7-Me)]AV[dA]HL[Nle][Sar]-NH2
SMILES: CCCC[C@H](NC(=O)[C@H](CC(C)C)NC(=O)[C@H](Cc1c[nH]cn1)NC(=O)[C@@H](C)NC(=O)[C@@H](NC(=O)[C@H](C)NC(=O)[C@H](Cc1c[nH]c2c(C)cccc12)NC(=O)[C@H](Cc1c[nH]cn1)NC(=O)[C@H](CC(N)=O)NC(=O)CNC(=O)COCCOCCNC(=O)COCCOCCNC(=O)COCCOCCNC(=O)COCCOCCNC(=O)CC[C@H](NC(=O)CCCCCCCCCCCCCCCCC(=O)O)C(=O)O)C(C)C)C(=O)N(C)CC(N)=O
B15: Peptide 108 (peptide)
peptide: {C18 diacid}-[γGlu][AEEA][AEEA]GNHRAV[dA]HL[Nle]-NH2
SMILES: CCCC[C@H](NC(=O)[C@H](CC(C)C)NC(=O)[C@H](Cc1c[nH]cn1)NC(=O)[C@@H](C)NC(=O)[C@@H](NC(=O)[C@H](C)NC(=O)[C@H](CCCNC(=N)N)NC(=O)[C@H](Cc1c[nH]cn1)NC(=O)[C@H](CC(N)=O)NC(=O)CNC(=O)COCCOCCNC(=O)COCCOCCNC(=O)CC[C@H](NC(=O)CCCCCCCCCCCCCCCCC(=O)O)C(=O)O)C(C)C)C(N)=O

biological target: human GRP receptor (human, UniProt P30550 1-384); assay: cell-based or functional assay
Sequence (P30550 whole entry): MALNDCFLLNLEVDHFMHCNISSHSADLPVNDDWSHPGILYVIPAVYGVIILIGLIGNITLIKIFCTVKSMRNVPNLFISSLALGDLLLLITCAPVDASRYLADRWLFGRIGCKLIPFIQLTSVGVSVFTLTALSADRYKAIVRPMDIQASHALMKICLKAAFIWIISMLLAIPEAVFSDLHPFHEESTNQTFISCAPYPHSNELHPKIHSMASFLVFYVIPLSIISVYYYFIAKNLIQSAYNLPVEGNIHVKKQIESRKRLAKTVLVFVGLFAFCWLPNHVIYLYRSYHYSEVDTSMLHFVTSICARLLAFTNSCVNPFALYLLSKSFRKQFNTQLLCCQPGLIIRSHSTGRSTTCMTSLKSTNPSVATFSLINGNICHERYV

**Q.** Which “hIP1 GRPR EC50” value does the source give for B1 here?
**A.** 11.2 nM

**Q.** For B2, which “hIP1 GRPR EC50” value is on record?
**A.** > 10000 nM

**Q.** How did the “hIP1 GRPR EC50” value turn out when B3 was run?
**A.** 181 nM

**Q.** Which “hIP1 GRPR EC50” value does the source give for B4 here?
**A.** 232 nM

**Q.** For B5, which “hIP1 GRPR EC50” value is on record?
**A.** > 10000 nM

**Q.** Which “hIP1 GRPR EC50” value does the source give for B6 here?
**A.** > 10000 nM

**Q.** For B7, which “hIP1 GRPR EC50” value is on record?
**A.** 352 nM

**Q.** B8 was tested. Which “hIP1 GRPR EC50” value did it give?
**A.** 221 nM

**Q.** With B9 as the binder, how does the “hIP1 GRPR EC50” value read?
**A.** 12.4 nM

**Q.** How did the “hIP1 GRPR EC50” value turn out when B10 was run?
**A.** 18.7 nM

**Q.** Which “hIP1 GRPR EC50” value does the source give for B11 here?
**A.** 99.9 nM

**Q.** How did the “hIP1 GRPR EC50” value turn out when B12 was run?
**A.** 467 nM

**Q.** B13 was tested. Which “hIP1 GRPR EC50” value did it give?
**A.** 0.6 nM

**Q.** For B14, which “hIP1 GRPR EC50” value is on record?
**A.** 345 nM

**Q.** For B15, which “hIP1 GRPR EC50” value is on record?
**A.** > 10000 nM

**Q.** How did the “hIP1 GRPR EC50” value turn out when EXXGNHWAVGHLM (Palmitoyl-D-γGlu-OEG-OEG-Gly-Asn-His-Trp-Ala-Val-Gly-His-Leu-Met-NH2) [Peptide 8] was run?
**A.** 1.7 nM
